T1: human GRF receptor (human, UniProt Q02643 23-423)
T1 sequence (looked up): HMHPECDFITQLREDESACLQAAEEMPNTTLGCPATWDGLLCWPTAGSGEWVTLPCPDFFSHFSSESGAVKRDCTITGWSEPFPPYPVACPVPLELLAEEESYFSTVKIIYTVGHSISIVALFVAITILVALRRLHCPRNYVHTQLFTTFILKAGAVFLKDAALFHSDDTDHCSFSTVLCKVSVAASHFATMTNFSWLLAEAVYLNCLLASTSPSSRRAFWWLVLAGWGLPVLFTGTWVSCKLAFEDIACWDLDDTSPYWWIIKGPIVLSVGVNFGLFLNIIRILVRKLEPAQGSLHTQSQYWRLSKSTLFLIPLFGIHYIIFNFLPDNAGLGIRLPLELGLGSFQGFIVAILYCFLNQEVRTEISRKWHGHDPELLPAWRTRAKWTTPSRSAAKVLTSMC

B1: Y-a-DAIFTDSYRKVLAQLKARQDIL-aib-R-NH2 (SEQ ID NO: 22) (peptide)
peptide: YXDAIFTDSYRKVLAQLKARQDILXR
HELM: PEPTIDE1{Y.[dA].D.A.I.F.T.D.S.Y.R.K.V.L.A.Q.L.K.A.R.Q.D.I.L.[Aib].R.[am]}$$$$V2.0; N-terminus assumed
SMILES: CC[C@H](C)[C@H](NC(=O)[C@H](C)NC(=O)[C@H](CC(=O)O)NC(=O)[C@@H](C)NC(=O)[C@@H](N)Cc1ccc(O)cc1)C(=O)N[C@@H](Cc1ccccc1)C(=O)N[C@H](C(=O)N[C@@H](CC(=O)O)C(=O)N[C@@H](CO)C(=O)N[C@@H](Cc1ccc(O)cc1)C(=O)N[C@@H](CCCNC(=N)N)C(=O)N[C@@H](CCCCN)C(=O)N[C@H](C(=O)N[C@@H](CC(C)C)C(=O)N[C@@H](C)C(=O)N[C@@H](CCC(N)=O)C(=O)N[C@@H](CC(C)C)C(=O)N[C@@H](CCCCN)C(=O)N[C@@H](C)C(=O)N[C@@H](CCCNC(=N)N)C(=O)N[C@@H](CCC(N)=O)C(=O)N[C@@H](CC(=O)O)C(=O)N[C@H](C(=O)N[C@@H](CC(C)C)C(=O)NC(C)(C)C(=O)N[C@@H](CCCNC(=N)N)C(N)=O)[C@@H](C)CC)C(C)C)[C@@H](C)O
B2: Trans-3-hexenoyl-Y-A-D-A-I-F-T-D-S-Y-R-K-V-L-A-Q-L-O-A-R-Q-D-I-L-S-r-NH2 (SEQ ID NO: 24) (peptide)
peptide: YADAIFTDSYRKVLAQLXARQDILSX
HELM: PEPTIDE1{[CC/C=C/CC(=O)[*:2]].Y.A.D.A.I.F.T.D.S.Y.R.K.V.L.A.Q.L.[Orn].A.R.Q.D.I.L.S.[dR].[am]}$$$$V2.0
SMILES: CC/C=C/CC(=O)N[C@@H](Cc1ccc(O)cc1)C(=O)N[C@@H](C)C(=O)N[C@@H](CC(=O)O)C(=O)N[C@@H](C)C(=O)N[C@H](C(=O)N[C@@H](Cc1ccccc1)C(=O)N[C@H](C(=O)N[C@@H](CC(=O)O)C(=O)N[C@@H](CO)C(=O)N[C@@H](Cc1ccc(O)cc1)C(=O)N[C@@H](CCCNC(=N)N)C(=O)N[C@@H](CCCCN)C(=O)N[C@H](C(=O)N[C@@H](CC(C)C)C(=O)N[C@@H](C)C(=O)N[C@@H](CCC(N)=O)C(=O)N[C@@H](CC(C)C)C(=O)N[C@@H](CCCN)C(=O)N[C@@H](C)C(=O)N[C@@H](CCCNC(=N)N)C(=O)N[C@@H](CCC(N)=O)C(=O)N[C@@H](CC(=O)O)C(=O)N[C@H](C(=O)N[C@@H](CC(C)C)C(=O)N[C@@H](CO)C(=O)N[C@H](CCCNC(=N)N)C(N)=O)[C@@H](C)CC)C(C)C)[C@@H](C)O)[C@@H](C)CC
B3: Trans-3-hexenoyl-YADAIFTDSYRKVLAQLKARQDILAR-NH2 (SEQ ID NO: 20) (peptide)
peptide: YADAIFTDSYRKVLAQLKARQDILAR
HELM: PEPTIDE1{[CC/C=C/CC(=O)[*:2]].Y.A.D.A.I.F.T.D.S.Y.R.K.V.L.A.Q.L.K.A.R.Q.D.I.L.A.R.[am]}$$$$V2.0
SMILES: CC/C=C/CC(=O)N[C@@H](Cc1ccc(O)cc1)C(=O)N[C@@H](C)C(=O)N[C@@H](CC(=O)O)C(=O)N[C@@H](C)C(=O)N[C@H](C(=O)N[C@@H](Cc1ccccc1)C(=O)N[C@H](C(=O)N[C@@H](CC(=O)O)C(=O)N[C@@H](CO)C(=O)N[C@@H](Cc1ccc(O)cc1)C(=O)N[C@@H](CCCNC(=N)N)C(=O)N[C@@H](CCCCN)C(=O)N[C@H](C(=O)N[C@@H](CC(C)C)C(=O)N[C@@H](C)C(=O)N[C@@H](CCC(N)=O)C(=O)N[C@@H](CC(C)C)C(=O)N[C@@H](CCCCN)C(=O)N[C@@H](C)C(=O)N[C@@H](CCCNC(=N)N)C(=O)N[C@@H](CCC(N)=O)C(=O)N[C@@H](CC(=O)O)C(=O)N[C@H](C(=O)N[C@@H](CC(C)C)C(=O)N[C@@H](C)C(=O)N[C@@H](CCCNC(=N)N)C(N)=O)[C@@H](C)CC)C(C)C)[C@@H](C)O)[C@@H](C)CC
B4: Y-a-D-A-I-F-T-D-S-Y-R-K-V-L-A-Q-L-O-A-R-Q-D-I-L-S-r-NH2 (SEQ ID NO: 23) (peptide)
peptide: YXDAIFTDSYRKVLAQLXARQDILSX
HELM: PEPTIDE1{Y.[dA].D.A.I.F.T.D.S.Y.R.K.V.L.A.Q.L.[Orn].A.R.Q.D.I.L.S.[dR].[am]}$$$$V2.0; N-terminus assumed
SMILES: CC[C@H](C)[C@H](NC(=O)[C@H](C)NC(=O)[C@H](CC(=O)O)NC(=O)[C@@H](C)NC(=O)[C@@H](N)Cc1ccc(O)cc1)C(=O)N[C@@H](Cc1ccccc1)C(=O)N[C@H](C(=O)N[C@@H](CC(=O)O)C(=O)N[C@@H](CO)C(=O)N[C@@H](Cc1ccc(O)cc1)C(=O)N[C@@H](CCCNC(=N)N)C(=O)N[C@@H](CCCCN)C(=O)N[C@H](C(=O)N[C@@H](CC(C)C)C(=O)N[C@@H](C)C(=O)N[C@@H](CCC(N)=O)C(=O)N[C@@H](CC(C)C)C(=O)N[C@@H](CCCN)C(=O)N[C@@H](C)C(=O)N[C@@H](CCCNC(=N)N)C(=O)N[C@@H](CCC(N)=O)C(=O)N[C@@H](CC(=O)O)C(=O)N[C@H](C(=O)N[C@@H](CC(C)C)C(=O)N[C@@H](CO)C(=O)N[C@H](CCCNC(=N)N)C(N)=O)[C@@H](C)CC)C(C)C)[C@@H](C)O
B5: Y-a-DAIFTDSYRKVLAQLKARQDILS-r-NH2 (SEQ ID NO: 21) (peptide)
peptide: YXDAIFTDSYRKVLAQLKARQDILSX
HELM: PEPTIDE1{Y.[dA].D.A.I.F.T.D.S.Y.R.K.V.L.A.Q.L.K.A.R.Q.D.I.L.S.[dR].[am]}$$$$V2.0; N-terminus assumed
SMILES: CC[C@H](C)[C@H](NC(=O)[C@H](C)NC(=O)[C@H](CC(=O)O)NC(=O)[C@@H](C)NC(=O)[C@@H](N)Cc1ccc(O)cc1)C(=O)N[C@@H](Cc1ccccc1)C(=O)N[C@H](C(=O)N[C@@H](CC(=O)O)C(=O)N[C@@H](CO)C(=O)N[C@@H](Cc1ccc(O)cc1)C(=O)N[C@@H](CCCNC(=N)N)C(=O)N[C@@H](CCCCN)C(=O)N[C@H](C(=O)N[C@@H](CC(C)C)C(=O)N[C@@H](C)C(=O)N[C@@H](CCC(N)=O)C(=O)N[C@@H](CC(C)C)C(=O)N[C@@H](CCCCN)C(=O)N[C@@H](C)C(=O)N[C@@H](CCCNC(=N)N)C(=O)N[C@@H](CCC(N)=O)C(=O)N[C@@H](CC(=O)O)C(=O)N[C@H](C(=O)N[C@@H](CC(C)C)C(=O)N[C@@H](CO)C(=O)N[C@H](CCCNC(=N)N)C(N)=O)[C@@H](C)CC)C(C)C)[C@@H](C)O

Biological target: T1, human GRF receptor
Test: cell-based or functional assay

Binder	EC50 as assessed by alkaline phosphatase (AP) induction
B1	0.72 nM
B2	1.18 nM
B3	0.98 nM
B4	1.14 nM
B5	2.47 nM

Reference: patent US20120270784A1 (THERATECHNOLOGIES, published 2012)
